Target: the molecule itself
Assay: self-assembly into a homododecamer; gel filtration and negative stain electron microscopy

B1: MjTET (TET aminopeptidase of Methanocaldococcus jannaschii, product of gene MJ0555) (enzyme)
chain: MSVVEYLKKLSKLHGISGREDSVREFMKKELEKYCDSVEIDNFGNLIAKRGNKGKKIMIAAHMDEIGLMVKYIDDNGFLKFTKIGGIYDPTILNQKVVVHGSKGDLIGVLGSKPPHRMKEEEKTKIIKYEDMFIDIGAESREEAIEMGVNIGTWVSFLSEVYDLGKNRLTGKAFDDRVGCAVLLEVMKRLSEEDIDCQVYAVGTVQEEVGLKGARVSAFKINPDVAIALDVTIAGDHPGIKKEDAPVDLGKGPVVGIVDASGRGLIAHPKVLDMIKAVSEKYKIDVQWEVGEGGTTDATAIHLTREGIPTGVISVPARYIHTPVEVIDKRDLEKTVELVYNCIKEVNNFF
notes: Untagged recombinant form made in E. coli; It forms a tetrahedral homododecamer; Activity assays were run with 0.1 mM CoCl2; also called MJ0555 protein; TET protein
  binding result: binds

Reference: patent publication US20210002623A1 (CENTRE NATIONAL DE LA RECHERCHE SCIENTIFIQUE, published 2021)
